Test results from article PMC11180167.

Columns and labels:
[1] = target: ryanodine receptor 1 (RyR1) in porcine skeletal SR membranes (pig (endogenous in porcine skeletal muscle SR)) (UniProt P16960); assay: co-sedimentation; 1-60 nM AF488-FKBP12.6 with SR membranes (0.02 mg/ml skeletal, 0.12 mg/mL cardiac), 90 min at 37 °C, 150 mM KCl, 20 mM K-PIPES pH 7.0, 5 mM GSH, 0.1 mg/ml BSA, 30 nM free Ca2+; bound and free separated at 100,000 x g; non-specific binding with 5 µM unlabeled FKBP12.6 (skeletal) or 20 µM tacrolimus (cardiac); bound AF488 read by fluorescence
[2] = target: cardiac muscle ryanodine receptor RyR2 in porcine cardiac SR membranes (pig (endogenous in porcine cardiac SR membranes)); assay: co-sedimentation; cardiac SR membranes (0.12 mg/mL) incubated 90 min at 37 °C with 1-60 nM AF488-FKBP12.6 in 150 mM KCl, 20 mM K-PIPES pH 7.0, 5 mM GSH, 0.1 mg/ml BSA, 1 mM EGTA, 65 µM CaCl2 (30 nM free Ca2+); non-specific binding with 20 µM tacrolimus; bound and free separated at 100,000 x g for 25 min; fluorescence of the pellet; Kd from Hill fit, n = 5
[3] = target: skeletal muscle ryanodine receptor RyR1 in porcine skeletal SR membranes (pig (endogenous in porcine skeletal SR membranes)) (UniProt P16960); assay: co-sedimentation; skeletal SR membranes (0.02 mg/ml) incubated 90 min at 37 °C with 1-60 nM AF488-FKBP12.6 in 150 mM KCl, 20 mM K-PIPES pH 7.0, 5 mM GSH, 0.1 mg/ml BSA, 1 mM EGTA, 65 µM CaCl2 (30 nM free Ca2+); non-specific binding with 5 µM unlabeled FKBP12.6; bound and free separated at 100,000 x g for 25 min; fluorescence of the pellet; Kd from Hill fit, n = 3
[4] = target: ryanodine receptor 1 (RyR1) in porcine skeletal SR membranes (pig (endogenous in porcine skeletal muscle SR)) (UniProt P16960)

A Kd [1] of 12.6 nM was found for AF488-G1C-FKBP12.6 (natural protein) in this work.
A Kd [1] of 7.3 nM was found for AF488-T6C-FKBP12.6 (natural protein) in this work.
A Kd [2] of 1.6 nM and a Kd [3] of 4.9 nM were found for “AF488-labeled E32C FKBP12.6 (null-cysteine background) (natural protein)” in this work.
A Kd [2] of 5 nM was found for “AF488-labeled G1C FKBP12.6 (null-cysteine background) (natural protein)” in this work.
A Kd [2] of 3.7 nM and a Kd [3] of 4.7 nM were found for “AF488-labeled K44C FKBP12.6 (null-cysteine background) (natural protein)” in this work.
A Kd [2] of 2.3 nM and a Kd [3] of 3.9 nM were found for “AF488-labeled Q65C FKBP12.6 (null-cysteine background) (natural protein)” in this work.
A Kd [2] of 3.6 nM and a Kd [3] of 6.4 nM were found for “AF488-labeled R49C FKBP12.6 (null-cysteine background) (natural protein)” in this work.
A Kd [2] of 2.7 nM was found for “AF488-labeled T6C FKBP12.6 (null-cysteine background) (natural protein)” in this work.
A Kd [2] of 3.2 nM and a Kd [3] of 3.7 nM were found for “AF488-labeled T14C FKBP12.6 (null-cysteine background) (natural protein)” in this work.
A Kd [2] of 1.9 nM and a Kd [3] of 5.8 nM were found for “AF488-labeled T85C FKBP12.6 (null-cysteine background) (natural protein)” in this work.
A [^3H]ryanodine binding as an index of channel activity, 800 nM CaM, 30 nM Ca2+: increase [4] of 20 fold was found for “unlabeled WT-CaM (from UniProt P0DP23 1-149) (natural protein)” in this work.
